Data published in paper PMC2782133, “Interaction of HP1 and Brg1/Brm with the Globular Domain of Histone H3 Is Required for HP1-Mediated Repression” (PLoS Genetics, 2009).
Blank lines part the entries; values can stand above or below the binder they belong to.

What was measured:
GST-HP1γ = target: T1, GST-HP1γ (human, UniProt Q13185 1-183); experiment: pull-down; GST fusion proteins bound to agarose beads incubated with purified histones, recombinant B10-tagged H3 constructs or purified Brg1-flag; ELB buffer (50mM HEPES pH 7, 250mM NaCl, 1mM EDTA, 0.1% NP40); elution with 20mM glutathione; western blot (anti-H3, anti-B10 or anti-Brg1); settings: both partners purified
T1 construct: HP1γ

GST-HP1α = target: T2, GST-HP1α (human, UniProt P45973 1-191); experiment: as above; settings: both partners purified
T2 construct: HP1α, human; also called HP1α-derived GST-fusion protein
T2 sequence (P45973 whole entry, the tested form may be a part): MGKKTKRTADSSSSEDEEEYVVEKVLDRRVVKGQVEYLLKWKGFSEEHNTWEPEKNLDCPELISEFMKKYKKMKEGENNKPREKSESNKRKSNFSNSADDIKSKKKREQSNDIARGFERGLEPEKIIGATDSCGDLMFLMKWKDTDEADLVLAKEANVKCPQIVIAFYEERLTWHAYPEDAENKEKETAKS

T1 sequence (Q13185 whole entry, the tested form may be a part): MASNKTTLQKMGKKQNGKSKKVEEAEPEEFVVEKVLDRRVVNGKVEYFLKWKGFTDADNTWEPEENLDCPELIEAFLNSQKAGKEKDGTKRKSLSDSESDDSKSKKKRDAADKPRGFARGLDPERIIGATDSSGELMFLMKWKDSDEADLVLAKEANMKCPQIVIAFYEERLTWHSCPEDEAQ

- binding result (GST-HP1γ): binds
- fold excess of HP1α over Brg1 needed for similar binding (GST-HP1α): ~50 fold
B1: rH3(35–66), B10/6xHIS-tagged (domain or fragment)
chain: not shown
notes: histone H3 aa 35-66 (V35 to P66), recombinant; also called Shadock; histone H3 aa 35 to 66

- binding result (GST-HP1γ): binds
B2: rH3(35–66)V46A, B10/6xHIS-tagged (domain or fragment)
chain: not shown
notes: histone H3 aa 35-66 with the valine of the PXXVXL motif mutated; also called mutant B10-tagged fragment of histone H3 (aa 35 to 66)

- binding result (GST-HP1γ): binds
B3: rH3(44–66), B10/6xHIS-tagged (domain or fragment, UniProt P68431 45-67, looked up)
chain: GTVALREIRRYQKSTELLIRKLP
notes: histone H3 aa 44-66, recombinant; also called histone H3 aa 44 to 66
